{
  "source": "patent US20200181226A1",
  "about": "(UNUM THERAPEUTICS, published 2020)",
  "binders": {"B1": {"name": "rituximab (antibody, V domains shown)", "VH": "QVQLQQPGAELVKPGASVKMSCKASGYTFTSYNMHWVKQTPGRGLEWIGAIYPGNGDTSYNQKFKGKATLTADKSSSTAYMQLSSLTSEDSAVYYCARSTYYGGDWYFNVWGAGTTVTVSA", "VL": "QIVLSQSPAILSASPGEKVTMTCRASSSVSYIHWFQQKPGSSPKPWIYATSNLASGVPVRFSGSGSGTSYSLTISRVEAEDAATYYCQQWTSNPPTFGGGTKLEIK"}},
  "key": {"[1]": {"molecular_target": "T1, ACTR variant SEQ ID NO: 9", "T1 construct": "also called ACTR T cells; ACTR-expressing T cells", "T1 sequence (chain, as listed by the source mutant limits assumed)": "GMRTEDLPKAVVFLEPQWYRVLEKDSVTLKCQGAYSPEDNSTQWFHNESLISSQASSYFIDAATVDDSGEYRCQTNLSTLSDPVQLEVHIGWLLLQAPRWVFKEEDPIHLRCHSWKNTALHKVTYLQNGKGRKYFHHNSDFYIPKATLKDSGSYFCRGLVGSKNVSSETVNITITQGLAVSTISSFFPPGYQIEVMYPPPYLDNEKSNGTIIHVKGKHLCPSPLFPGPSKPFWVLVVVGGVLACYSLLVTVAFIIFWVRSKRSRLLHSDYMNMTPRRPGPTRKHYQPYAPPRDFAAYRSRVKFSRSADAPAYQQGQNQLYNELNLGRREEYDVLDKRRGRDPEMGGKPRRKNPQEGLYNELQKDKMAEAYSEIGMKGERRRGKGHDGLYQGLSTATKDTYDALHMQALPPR", "test": "apparent affinity; flow cytometry, rituximab titrated on ACTR-expressing T cells, anti-human Fc detection"}, "[2]": {"molecular_target": "T1, ACTR variant SEQ ID NO: 9", "test": "cell-based or functional assay"}, "[3]": {"molecular_target": "T1, ACTR variant SEQ ID NO: 9", "test": "flow cytometry titration of rituximab on T cells expressing ACTR variant SEQ ID NO: 9; bound rituximab detected with a fluorochrome-labeled anti-human Fc antibody"}},
  "data": [
    {"binder": "B1", "values": [
      {"measurement": "Kd", "setting": "[1]", "value": 689, "unit": "nM"},
      {"measurement": "EC50 (µg/mL) of cytotoxicity, Raji Target Cells + Rituximab", "setting": "[2]", "value": 0.07, "unit": "µg/mL"},
      {"measurement": "EC50 (read off the curve)", "setting": "[3]", "value": "~700", "unit": "nM"}
    ]}
  ]
}
